± gives the uncertainty stated by the source.
Experiment: protein stability index of a GFP-peptide fusion (yeast GPS) (PSI 1-4); higher = more stable; sorted into four equal gates, so the index is relative within each strain
Summary of the method: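 Yeast carrying a pooled library were grown to mid-log phase in leucine-free medium. Each library plasmid expresses Cherry and has a tiled 17-residue yeast protein peptide fused downstream of GFP. Cells were sorted into four equal gates by GFP/Cherry ratio, and plasmids from each gate were PCR-amplified, Illumina-sequenced and assigned to strains by barcode. Summing, across gates, the read frequency times the gate number gave each peptide's protein stability index.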

Sequence	protein stability index (doa10∆)	protein stability index (pdr5∆)	protein stability index (san1∆)	protein stability index (ubr1∆)
LNDSNVKSFKPHLLKQG [RRP42]	2.63 ± 0.083	3.25 ± 0.18	2.58 ± 0.24	2.54 ± 0.13
LNEALLQCPMLYVESTG [CSN12]	1.47 ± 0.088	1.26 ± 0.09	1.23 ± 0.15	1.19 ± 0.054
LNEFFTRELAEEGYSGV [RPS3]	2.5 ± 0.22	1.82 ± 0.12	1.44 ± 0.15	1.68 ± 0.11
LNEIELDNLKLKELRID [GRR1]	3.28 ± 0.097	3.09 ± 0.11	3.18 ± 0.054	2.85 ± 0.092
LNINNPNFLIMQGKITK [SMC2]	3.39 ± 0.26	2.47 ± 0.19	2.87 ± 0.13	–
LNKAGKPFRQTKFKVRG [RPL38]	2.78 ± 0.12	3.33 ± 0.069	3.19 ± 0.11	3.04 ± 0.081
LNKLYGGAKSRGVRPYK [RPS19A]	3.34 ± 0.14	3.3 ± 0.18	3.09 ± 0.061	–
LNLINAKLWFYIYLSHE [RPN3]	1.43 ± 0.059	1.23 ± 0.056	1.28 ± 0.095	1.44 ± 0.065
LNLLNYQELFIQPKNSD [YML103C/NUP188]	2.57 ± 0.06	2.21 ± 0.056	2.35 ± 0.054	2.3 ± 0.045
LNPQVADINKNFLSVIT [RPN2]	1.81 ± 0.065	2.19 ± 0.053	1.98 ± 0.071	1.95 ± 0.053
LNRLPAASLGDMVMATV [RPL23A]	1.6 ± 0.1	1.78 ± 0.072	2.52 ± 0.17	2.11 ± 0.057
LNSLLTYIKSEITQQEK [SMC4]	2.77 ± 0.066	2.04 ± 0.055	2.73 ± 0.071	2.63 ± 0.06
LNSLSPQAILAKNSIID [SWI1]	1.79 ± 0.033	1.72 ± 0.029	1.8 ± 0.044	1.75 ± 0.026
LNSMPNNVNEYSYTTIV [YJL039C/NUP192]	2.69 ± 0.085	2.95 ± 0.092	2.75 ± 0.075	2.6 ± 0.058
LPEIAKEIYTTLGNQML [YJR042W/NUP85]	2.28 ± 0.086	2.42 ± 0.087	2.87 ± 0.093	2.49 ± 0.069
LPEPTEGFAADDEPTTP [FAS1]	3 ± 0.095	2.65 ± 0.099	3.35 ± 0.15	2.92 ± 0.065
LPGDMLAVCDELGNMTM [SIN4]	2.76 ± 0.071	2.77 ± 0.072	2.78 ± 0.089	2.66 ± 0.085
LPGTNNNSNSNNNSSNE [SEC65]	2.93 ± 0.051	2.69 ± 0.054	2.89 ± 0.042	2.8 ± 0.049
LPLDSQDDEYVKDWLYD [PRP8]	3.44 ± 0.15	3.39 ± 0.088	3.35 ± 0.099	3.1 ± 0.053
LPLQAQQQLYGGNNNNN [SWI1]	3.05 ± 0.064	2.92 ± 0.07	2.68 ± 0.068	2.56 ± 0.045
LPNKSTISKTVSSTIPR [FAS2]	2.01 ± 0.072	2.63 ± 0.077	2.92 ± 0.11	2.94 ± 0.084
LPVASPFHSHLLVPASD [FAS1]	1.61 ± 0.053	1.62 ± 0.062	1.98 ± 0.063	1.96 ± 0.044
LPYNWDALEMQWRYLYD [ARP7]	2.1 ± 0.065	2.1 ± 0.073	2.44 ± 0.11	2.19 ± 0.068
LQAIQEKLNKTDENTPS [ITC1]	3.12 ± 0.098	3.08 ± 0.061	2.98 ± 0.047	2.89 ± 0.043
LQDLEEAKSFQDEAELV [RPC82]	3.5 ± 0.12	3.3 ± 0.15	3.52 ± 0.14	3.72 ± 0.17
LQDLSRYSRQFINNVLS [GRR1]	2.78 ± 0.059	2.29 ± 0.049	2.56 ± 0.049	2.74 ± 0.051

From the supplement of paper PMC9732359
